This note sets out measurements from PMC3537517, “In vitro substrate phosphorylation by Ca^2+/calmodulin-dependent protein kinase kinase using guanosine-5^′-triphosphate as a phosphate donor” (BMC Biochemistry, 2012).

The subject of data set [1] is Nc1ncnc2c1ncn2[C@@H]1O[C@H](COP(=O)(O)OP(=O)(O)OP(=O)(O)O)[C@@H](O)[C@H]1O. Briefly: purified protein. Conditions: Mg2+, Ca2+ phosphate donor; 30.0 °C.
Data set [2] deals with Nc1nc2c(ncn2[C@@H]2O[C@H](COP(=O)(O)OP(=O)(O)OP(=O)(O)O)[C@@H](O)[C@H]2O)c(=O)[nH]1. Briefly: purified protein. Conditions: Mg2+, Ca2+ phosphate donor; STO-609 competes with GTP; 30.0 °C.
Data set [3] concerns the target T1, CaMKKβ (Rattus norvegicus, UniProt O88831).
T1 construct: gene Camkk2; recombinant CaMKKβ purified from E. coli; with calmodulin (Ca2+/CaM)
Briefly: […]-GTP kinase assay with GST-CaMKIα ([…]-293, K49E); Lineweaver-Burk. The class given is biochemical.

For data set [4], the target named is T2, CaMKKα (Rattus norvegicus, UniProt P97756).
T2 construct: gene Camkk1; recombinant CaMKKα purified from E. coli; with calmodulin (Ca2+/CaM)
Described as above. The class given is biochemical.

T2 sequence (P97756 whole entry): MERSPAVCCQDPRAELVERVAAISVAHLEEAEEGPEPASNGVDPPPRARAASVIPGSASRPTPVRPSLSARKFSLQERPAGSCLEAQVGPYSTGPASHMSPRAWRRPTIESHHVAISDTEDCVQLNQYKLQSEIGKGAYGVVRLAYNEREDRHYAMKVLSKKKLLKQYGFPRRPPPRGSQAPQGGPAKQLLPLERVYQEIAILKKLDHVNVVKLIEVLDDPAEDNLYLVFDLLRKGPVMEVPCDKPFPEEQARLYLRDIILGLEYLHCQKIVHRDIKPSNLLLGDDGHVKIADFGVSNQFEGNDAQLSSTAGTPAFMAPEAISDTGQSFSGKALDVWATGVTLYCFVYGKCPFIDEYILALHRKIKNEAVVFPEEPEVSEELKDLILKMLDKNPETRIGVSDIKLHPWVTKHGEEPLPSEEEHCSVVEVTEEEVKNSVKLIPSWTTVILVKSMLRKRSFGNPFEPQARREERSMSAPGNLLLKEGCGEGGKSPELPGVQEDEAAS
T1 sequence (O88831 2-587): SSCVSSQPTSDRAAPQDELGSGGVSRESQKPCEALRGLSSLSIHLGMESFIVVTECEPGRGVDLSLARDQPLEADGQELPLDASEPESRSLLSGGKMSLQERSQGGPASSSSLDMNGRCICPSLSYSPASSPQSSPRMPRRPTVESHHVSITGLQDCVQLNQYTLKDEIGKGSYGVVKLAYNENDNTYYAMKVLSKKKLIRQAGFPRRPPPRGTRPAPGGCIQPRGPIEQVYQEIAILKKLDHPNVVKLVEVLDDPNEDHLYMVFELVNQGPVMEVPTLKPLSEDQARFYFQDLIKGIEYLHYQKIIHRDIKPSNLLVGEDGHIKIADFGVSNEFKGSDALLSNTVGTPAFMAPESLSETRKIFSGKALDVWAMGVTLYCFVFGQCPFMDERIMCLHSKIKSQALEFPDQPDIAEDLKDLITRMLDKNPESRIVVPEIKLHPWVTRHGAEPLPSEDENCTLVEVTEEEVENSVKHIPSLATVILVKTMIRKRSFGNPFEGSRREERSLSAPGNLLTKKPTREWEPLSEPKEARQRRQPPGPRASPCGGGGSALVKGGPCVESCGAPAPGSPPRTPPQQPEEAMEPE

Broadly, the Km is the concentration of substrate that gives half-maximal velocity. One may read the Vmax as the rate approached at saturating substrate. Turning to CaMKKβ (Rattus norvegicus), in data set [1], the Km was found to be 15 µM and the Vmax is 0.286 µmol/min/mg. In data set [2], the Km worked out at 507 µM and the maximum rate (Vmax) was found to be 0.077 µmol/min/mg.
For orientation: IC50 means the point on the concentration scale where inhibition reaches its midpoint. Low values mean inhibition by little substance, high ones a need for much substance. Consider `O=C(O)c1ccc2c3c1cccc3c(=O)n1c3ccccc3nc21` [STO-609, 7H-benzimidazo[2,1-a]benz[de]isoquinoline-7-one-3-carboxylic acid], for which the values for the IC50 in data set [3] and in data set [4] were 38.2 nM and 255 nM, respectively.
As for CaMKKα (Rattus norvegicus), in data set [1], the Michaelis-Menten constant (Km) was determined as 15 µM and the maximal velocity (Vmax) came to 0.625 µmol/min/mg. For the same molecule, in data set [2], the Michaelis-Menten constant (Km) came to 444 µM and the Vmax stood at 0.312 µmol/min/mg.
